Publication PMC5778602 (Nucleic Acids Research, 2017)

T1: WD40 domain of CstF-50 (human, UniProt Q05048 80-431)
T1 sequence: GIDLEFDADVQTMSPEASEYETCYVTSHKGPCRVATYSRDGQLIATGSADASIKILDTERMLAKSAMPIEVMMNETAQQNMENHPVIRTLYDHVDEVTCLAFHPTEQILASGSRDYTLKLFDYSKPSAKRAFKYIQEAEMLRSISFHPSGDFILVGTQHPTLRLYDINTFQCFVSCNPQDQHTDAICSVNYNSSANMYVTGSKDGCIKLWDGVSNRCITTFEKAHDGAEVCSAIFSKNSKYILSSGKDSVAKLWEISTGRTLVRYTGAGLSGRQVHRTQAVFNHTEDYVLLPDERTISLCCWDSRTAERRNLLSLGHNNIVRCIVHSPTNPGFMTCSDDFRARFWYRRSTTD

B1: CstF-77 (residues 241–610) (domain or fragment, human, UniProt Q12996 241-610, looked up)
chain: NTPQEAQQVDMWKKYIQWEKSNPLRTEDQTLITKRVMFAYEQCLLVLGHHPDIWYEAAQYLEQSSKLLAEKGDMNNAKLFSDEAANIYERAISTLLKKNMLLYFAYADYEESRMKYEKVHSIYNRLLAIEDIDPTLVYIQYMKFARRAEGIKSGRMIFKKAREDTRTRHHVYVTAALMEYYCSKDKSVAFKIFELGLKKYGDIPEYVLAYIDYLSHLNEDNNTRVLFERVLTSGSLPPEKSGEIWARFLAFESNIGDLASILKVEKRRFTAFKEEYEGKETALLVDRYKFMDLYPCSASELKALGYKDVSRAKLAAIIPDPVVAPSIVPVLKDEVDRKPEYPKPDTQQMIPFQPRHLAPPGLHPVPGGVF
B2: full length GST-CstF-50 fusion protein (natural protein, human, UniProt Q05048 1-431, looked up)
chain: MYRTKVGLKDRQQLYKLIISQLLYDGYISIANGLINEIKPQSVCAPSEQLLHLIKLGMENDDTAVQYAIGRSDTVAPGTGIDLEFDADVQTMSPEASEYETCYVTSHKGPCRVATYSRDGQLIATGSADASIKILDTERMLAKSAMPIEVMMNETAQQNMENHPVIRTLYDHVDEVTCLAFHPTEQILASGSRDYTLKLFDYSKPSAKRAFKYIQEAEMLRSISFHPSGDFILVGTQHPTLRLYDINTFQCFVSCNPQDQHTDAICSVNYNSSANMYVTGSKDGCIKLWDGVSNRCITTFEKAHDGAEVCSAIFSKNSKYILSSGKDSVAKLWEISTGRTLVRYTGAGLSGRQVHRTQAVFNHTEDYVLLPDERTISLCCWDSRTAERRNLLSLGHNNIVRCIVHSPTNPGFMTCSDDFRARFWYRRSTTD
B3: CstF-50 (full length, affinity tag removed) (natural protein, human, UniProt Q05048 1-431, looked up)
chain: B2 chain
B4: CstF-77ΔN (domain or fragment, human, UniProt Q12996 241-717, looked up)
chain: NTPQEAQQVDMWKKYIQWEKSNPLRTEDQTLITKRVMFAYEQCLLVLGHHPDIWYEAAQYLEQSSKLLAEKGDMNNAKLFSDEAANIYERAISTLLKKNMLLYFAYADYEESRMKYEKVHSIYNRLLAIEDIDPTLVYIQYMKFARRAEGIKSGRMIFKKAREDTRTRHHVYVTAALMEYYCSKDKSVAFKIFELGLKKYGDIPEYVLAYIDYLSHLNEDNNTRVLFERVLTSGSLPPEKSGEIWARFLAFESNIGDLASILKVEKRRFTAFKEEYEGKETALLVDRYKFMDLYPCSASELKALGYKDVSRAKLAAIIPDPVVAPSIVPVLKDEVDRKPEYPKPDTQQMIPFQPRHLAPPGLHPVPGGVFPVPPAAVVLMKLLPPPICFQGPFVQVDELMEIFRRCKIPNTVEEAVRIITGGAPELAVEGNGPVESNAVLTKAVKRPNEDSDEDEEKGAVVPPVHDIYRARQQKRIR
B5: CstF-77 (residues 241–600) (domain or fragment, human, UniProt Q12996 241-600, looked up)
chain: NTPQEAQQVDMWKKYIQWEKSNPLRTEDQTLITKRVMFAYEQCLLVLGHHPDIWYEAAQYLEQSSKLLAEKGDMNNAKLFSDEAANIYERAISTLLKKNMLLYFAYADYEESRMKYEKVHSIYNRLLAIEDIDPTLVYIQYMKFARRAEGIKSGRMIFKKAREDTRTRHHVYVTAALMEYYCSKDKSVAFKIFELGLKKYGDIPEYVLAYIDYLSHLNEDNNTRVLFERVLTSGSLPPEKSGEIWARFLAFESNIGDLASILKVEKRRFTAFKEEYEGKETALLVDRYKFMDLYPCSASELKALGYKDVSRAKLAAIIPDPVVAPSIVPVLKDEVDRKPEYPKPDTQQMIPFQPRHLAPP

Columns and labels:
[1] = biological target: B2; assay: pull-down
CstF-77ΔN [2] = biological target: B4; assay: pull-down
CstF-77ΔN [3] = biological target: B4; assay: SEC
SEC-MALS = biological target: the molecule itself; assay: SEC-MALS
WD40 domain of CstF-50 = biological target: T1, WD40 domain of CstF-50; assay: ITC

B1: binds [1].

B2: binds (CstF-77ΔN [2]).

B3: binds (CstF-77ΔN [3]).

With B4 the “stoichiometry N” value (SEC-MALS) was 2.

B5: binds [1].

In the case of YPKPDTQQMIPFQPRHLAPP (peptide, UniProt Q12996 581-600, looked up) [CstF-77 peptide (residues 581–600)], the Kd (WD40 domain of CstF-50) is reported as roughly 200 nM and the “stoichiometry N” value (WD40 domain of CstF-50) is reported as 1.
